Experimental data taken from patent publication US20160038561A1 (SYNG PHARMACEUTICALS, published 2016).
No end group written: not given here. *: point of attachment. FITC = O=C1OC2(c3ccc(O)cc3Oc3cc(O)ccc32)c2ccc(NC(=S)*)cc21

Molecular target: T1, Synuclein-gamma (SNCG) (UniProt O76070 1-127)
T1 construct: Intracellular protein in MCF7-SNCG cells; also called γ-synuclein; gamma synuclein
Test: co-immunoprecipitation with anti-SNCG antibody from treated MCF7-SNCG cell lysates, western blot with anti-FITC antibody

T1 sequence (O76070 whole entry): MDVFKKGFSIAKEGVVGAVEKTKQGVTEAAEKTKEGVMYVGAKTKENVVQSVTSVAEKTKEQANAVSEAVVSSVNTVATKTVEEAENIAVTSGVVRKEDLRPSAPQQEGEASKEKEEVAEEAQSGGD

B1: FITC tagged GYGRKKRRQRRR (TAT) alone (peptide)
peptide: {FITC}-GYGRKKRRQRRR
notes: Control peptide in the co-immunoprecipitation; also called TAT CTL; control peptide
B1: no binding.
